Assay [1] deals with T1, amphyphisin SH3 (AMPH_HUMAN), P49418.
T1 chain: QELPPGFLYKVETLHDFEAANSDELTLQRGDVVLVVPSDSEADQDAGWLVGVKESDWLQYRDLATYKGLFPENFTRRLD
Kind of assay: SPOT array.

The target of assay [2] is endophilin SH3 (SH3G2_HUMAN), Q99962. The assay can be described thus: SPOT array.

This note sets out measurements from paper PMC314469, “Protein Interaction Networks by Proteome Peptide Scanning” (PLoS Biology, 2004).

Turning to TPPQPKRPRPGVSK [Q9BR39 363-376], the figures for the normalised SPOT signal, Boehringer light units (BLU); mean over the file's lines of this peptide in assay [1] and in assay [2] were 343 and 253, respectively.
In the case of TNFPPPRPPPPSRP [AAH28697 239-253], the normalised SPOT signal, Boehringer light units (BLU); mean over the file's lines of this peptide was found to be 1610 in assay [1] and 11200 in assay [2].
TNFAFRRPSFESLK [P43652 501-514]: the normalised SPOT signal, Boehringer light units (BLU); mean over the file's lines of this peptide in assay [1] is 45.2; in assay [2], 414.
For SELRLSRPPKAYGS [Q9H4S4 61-74] the same measures were 36.1 and 13.3.
For TPKPPKRPRLQRPA [Q9NWH1 363-376] the same measures were 381 and 8220.
For TPRKILRPTKETSE [Q9BXX2 182-195] the same measures were 173 and 30.9.
TPDLLPRPPRLLLL [Q9NRA0 137-150]: the values for the normalised SPOT signal, Boehringer light units (BLU); mean over the file's lines of this peptide in assay [1] and in assay [2] were 830 and 94.4, respectively.
As to TPPDPPRPKRRSHS [Q9ULT1 709-722], the normalised SPOT signal, Boehringer light units (BLU); mean over the file's lines of this peptide in assay [1] is 2330; in assay [2], 202.
For TPPLPRRPRKGSSE [Q9H0X6 10-23] the same measures were 2900 and 2360.
As to SEVPLKRPRLDKNS [Q9BZW3 294-307], the normalised SPOT signal, Boehringer light units (BLU); mean over the file's lines of this peptide amounted to 45.5 in assay [1] and 65.5 in assay [2].
For TPASPRRPPALRSQ [Q9BUY9 390-404], the normalised SPOT signal, Boehringer light units (BLU); mean over the file's lines of this peptide amounted to 843 in assay [1] and 6640 in assay [2].
For TPPAFIRPTRKLDD [Q9UPV7 127-140] the same measures were 173 and 146.
As to TPRGPRRPSGPAEL [Q9BUY9 649-662], the normalised SPOT signal, Boehringer light units (BLU); mean over the file's lines of this peptide in assay [1] was 31.6; in assay [2], 30.
For TQISLKRPRHRSVG [Q9P2Z0 180-193] the same measures were 6.5 and 27.6.
Regarding TPPIPSKPPGGFGK [Q9H462 843-857], the normalised SPOT signal, Boehringer light units (BLU); mean over the file's lines of this peptide worked out at 41.7 in assay [1] and 995 in assay [2].
With SEMLIKRPSKVKTI [Q8WV92 138-151], the normalised SPOT signal, Boehringer light units (BLU); mean over the file's lines of this peptide in assay [1] is 62.6; in assay [2], 48.1.
On to TPGEFRRPRLASFG [Q14678 130-143], for which the normalised SPOT signal, Boehringer light units (BLU); mean over the file's lines of this peptide turned out to be 44.3 in assay [1] and 720 in assay [2].
For TPVSLGRPERYRRH [Q9GZM7 384-397] the same measures were 644 and 398.
As for TNSRLARPTRLSLG [P35568 851-864], the normalised SPOT signal, Boehringer light units (BLU); mean over the file's lines of this peptide stood at 1760 in assay [1] and 1890 in assay [2].
For TPRPLARPARPNLS [Q9Y6C2 143-156] the same measures were 3020 and 610.
For TPLSLKRPPPYDAV [Q9P242 471-484] the same measures were 19.2 and 67.5.
For TPSELERPSRMVSR [Q14068 72-85] the same measures were 772 and 29.
Take TPTVPLKPPPPLTL [Q9HD71 354-368]: the normalised SPOT signal, Boehringer light units (BLU); mean over the file's lines of this peptide in assay [1] was 39.3; in assay [2], 904.
For TNPELRRPRSEPSN [Q9Y6Y1 1215-1228] the same measures were 34.7 and 41.2.
For TPAPPLRPPDSLSR [Q8WX45 160-174] the same measures were 446 and 647.
With TPAPPLRPPDSPSR [O75949 160-174], the normalised SPOT signal, Boehringer light units (BLU); mean over the file's lines of this peptide in assay [1] worked out at 280; in assay [2] it was 2060.
Consider TPLSPLKPPRMDTA [Q9H898 117-131], for which the normalised SPOT signal, Boehringer light units (BLU); mean over the file's lines of this peptide in assay [1] was found to be 334; in assay [2], 56.4.
Take TPNPLERPIKMGWL [P42331 33-46]: the results for the normalised SPOT signal, Boehringer light units (BLU); mean over the file's lines of this peptide in assay [1] and in assay [2] were 94 and 59.1, respectively.
